This passage reports luciferase activity in EVs released from co-transfected HEK-293 cells, rapamycin dose series for 24 h (rapamycin is the bridging compound) results from publication PMC10253715.

In the assay the target is CD9-EGFP-FRB (UniProt P21926).

For the substance mCherry-FKBP12-luciferase, the luciferase activity in EVs released from co-transfected HEK-293 cells, rapamycin dose series for 24 h (rapamycin is the bridging compound) came out at 3 fold.
